Experiments:
[1] = molecular target: T1, human HER3 (Homo sapiens, UniProt P21860); assay: Global affinity study, Bio-Layer Interferometry (Octet QK384); assay type: binding; details: BLI, His-tagged human HER3, IgG1 format, 25° C.; read-out: Affinity (KD)
Experimental: The anti-HER3 antibody clones in IgG1 format were analysed for binding affinity to human HER3. Bio-Layer Interferometry (BLI) experiments were performed using the Octet QK384 system (ForteBio). anti-Human IgG Capture (AHC) Octet sensor tips (Pall ForteBio, USA) were used to anti-HER3 antibodies (25 nM). All measurements were performed at 25° C. with agitation at 1000 rpm. Kinetic measurements for antigen binding were performed by loading His-tagged human HER3 antigens at different concentrations for 120 s, followed by a 120 s dissociation time by transferring the biosensors into assay buffer containing wells. Sensograms were referenced for buffer effects and then fitted using the Octet QK384 user software (Pall ForteBio, USA). Kinetic responses were subjected to a global fitting using a one site binding model to obtain values for association (Kon), dissociation (Koff) rate constants and the equilibrium dissociation constant (KD). Only curves that could be reliably fitted with the software (R^2>0.90) were included in the analysis.
Bio-Layer Interferometry (BLI) experiments were performed using the Octet QK384 system (ForteBio). […] Binding was detected using titrated HIS-tagged human HER3 in steps of baseline (60 s), loading (120 s), baseline2 (60 s), association (120 s), dissociation (FcA 120 s, FcB 600 s) and regeneration (15 s). Sensorgrams were analysed as described in Example 3.3. […]

[2] = molecular target: T1, human HER3; assay: BLI binding to HER3 in absence of NRG1 ('closed' conformation)
Experimental: (§1) In further experiments, anti-HER3 antibodies were analysed in order to determine the affinity of binding to human HER3 in the context of a human HER3:human NRG1 complex (that is, HER3 provided in the ligand-bound, ‘open’ conformation), as compared to the affinity of binding to human HER3 in the absence of NRG1 complex (that is, HER3 provided in the unbound, ‘closed’ conformation).
(§2) Binding of anti-HER3 antibodies to human HER3 was evaluated by BLI. Briefly, anti-Human IgG Capture (AHC) sensors (ForteBio) were loaded with anti-HER3 IgG antibodies (25 nM). Kinetic measurements were performed in absence or presence of NRG1. NRG1 was used at 1:1 molar ratio with HER3 wherein the complex was allowed to form at RT for 2 h. His-tagged human HER3 or HER3-NRG1 complexes were loaded to antibody coated AHC sensors at different concentrations for 120 s, followed by a 120 s dissociation time. All measurements were performed at 25° C. with agitation at 1000 rpm. Sensorgrams were referenced for buffer effects and then analyzed using the Octet QK384-software (ForteBio). Kinetic responses were globally fitted using a one-site binding model to obtain values for association (Kon), dissociation (Koff) rate constants and the equilibrium dissociation constant (KD).

[3] = molecular target: human HER3:human NRG1 complex (Homo sapiens, UniProt P21860); assay: BLI binding to HER3-NRG1 complex ('open' conformation); details: presence of NRG1 (1:1 molar ratio)
Experimental: as §1, §2

[4] = molecular target: T1, human HER3; assay: Immunohistochemistry on frozen human tissue arrays; parameters: Arrays of commercially-available frozen tissue sections were obtained; from tissue; host or cells: frozen human normal and malignant tissue section arrays; details: mIgG2a format
Experimental: Anti-HER3 antibody 10D1F in mIgG2a format was evaluated for its ability to be used in immunohistochemistry for the detection of human HER3 protein.
Processing of sections was performed using Bond reagents (Leica Biosystems). Arrays of commercially-available frozen tissue sections were obtained. Slides were dried in a desiccator for 10 min and then subjected to the following treatments, with water washes and/or TBS-T rinses between steps: (i) fixation by treatment with 100% acetone for 10 min at room temperature; (ii) endogenous peroxidase blocking by treatment with 3% (v/v) H2O2 for 15 min at room temperature; (iii) blocking by treatment with 10% goat serum for 30 min at room temperature, (iv) incubation with 10D1 F-mIgG2a at 1:250 dilution of a 6.2 mg/ml solution overnight at 4° C., (v) incubation with HRP-polymer conjugated goat anti-mouse antibody for 30 min at room temperature, and (vi) development with Bond Mixed DAB Refine for 5 min at room temperature, followed by rinsing with deionised water and 1× Bond Wash to stop the reaction.
Slides were then dehydrated, mounted in synthetic mounting media and scanned with high resolution.

[5] = molecular target: T2, mouse HER3 (Mus musculus, UniProt Q61526); assay: ELISA cross-reactivity, mouse HER3; assay type: binding
T2 construct: purchased Sino Biological Inc., China
Experimental: (§3) ELISAs were used to determine the binding specificity of the antibodies. The antibodies were analysed for binding to human HER3 polypeptide, as well as respective mouse, rat and monkey homologues of HER3 (Sino Biological Inc., China). The antibodies were also analysed for their ability to bind to human EGFR and human HER2 (Sino Biological Inc., China).
(§4) ELISAs were carried out according to standard protocols. Briefly, 96-well plates (Nunc, Denmark) were coated with 0.1 μg/ml of target polypeptide in phosphate-buffered saline (PBS) for 16 h at 4° C. After blocking for 1 h with 1% BSA in Tris buffer saline (TBS) at room temperature, the anti-HER3 antibody was serially diluted with the highest concentration being 10 μg/ml, and added to the plate. Post 1 h incubation at room temperature, plates were washed three times with TBS containing 0.05% Tween 20 (TBS-T) and were then incubated with a HRP-conjugated anti-His antibody (Life Technologies, Inc., USA) for 1 h at room temperature. After washing, plates were developed with colorimetric detection substrate 3,3′,5,5′-tetramethylbenzidine (Turbo-TMB; Pierce, USA) for 10 min. The reaction was stopped with 2M H2SO4, and OD was measured at 450 nm. […]

[6] = molecular target: T3, rat HER3 (Rattus norvegicus, UniProt Q62799); assay: ELISA cross-reactivity, rat HER3; assay type: binding
T3 construct: purchased Sino Biological Inc., China
Experimental: as §3, §4

[7] = tested on: cynomolgus macaque HER3; assay: ELISA cross-reactivity, cynomolgus macaque HER3; assay type: binding
Experimental: as §3, §4

[8] = molecular target: T4, human EGFR (Homo sapiens, UniProt P00533); assay: ELISA specificity, human EGFR; assay type: binding; details: antibody up to 10 μg/ml
T4 construct: purchased Sino Biological Inc., China
Experimental: as §3
(§5) ELISAs were carried out according to standard protocols. Briefly, 96-well plates (Nunc, Denmark) were coated with 0.1 μg/ml of target polypeptide in phosphate-buffered saline (PBS) for 16 h at 4° C. After blocking for 1 h with 1% BSA in Tris buffer saline (TBS) at room temperature, the anti-HER3 antibody was serially diluted with the highest concentration being 10 μg/ml, and added to the plate. Post 1 h incubation at room temperature, plates were washed three times with TBS containing 0.05% Tween 20 (TBS-T) and were then incubated with a HRP-conjugated anti-His antibody (Life Technologies, Inc., USA) for 1 h at room temperature. […] The reaction was stopped with 2M H2SO4, and OD was measured at 450 nm.
(§6) The antibodies were analysed for their ability to bind to human HER3 polypeptide as well as human HER1 (EGFR) and human HER2 (Sino Biological Inc., China). […]
(§7) ELISAs were carried out according to standard protocols. […] The reaction was stopped with 2M H2SO4, and OD was measured at 450 nm.

[9] = molecular target: T5, human HER2 (Homo sapiens, UniProt P04626); assay: ELISA specificity, human HER2; assay type: binding; details: antibody up to 10 μg/ml
T5 construct: purchased Sino Biological Inc., China
Experimental: as §3, §5, §6, §7

[10] = tested on: A549 cell-line derived mouse model of lung adenocarcinoma; assay: A549 cell-line derived xenograft model; assay type: in vivo; details: A549, NPG mice, IP weekly 500 μg, 4 doses
[11] = clinical, literature, cited from earlier work

T2 sequence (Q61526 20-1339): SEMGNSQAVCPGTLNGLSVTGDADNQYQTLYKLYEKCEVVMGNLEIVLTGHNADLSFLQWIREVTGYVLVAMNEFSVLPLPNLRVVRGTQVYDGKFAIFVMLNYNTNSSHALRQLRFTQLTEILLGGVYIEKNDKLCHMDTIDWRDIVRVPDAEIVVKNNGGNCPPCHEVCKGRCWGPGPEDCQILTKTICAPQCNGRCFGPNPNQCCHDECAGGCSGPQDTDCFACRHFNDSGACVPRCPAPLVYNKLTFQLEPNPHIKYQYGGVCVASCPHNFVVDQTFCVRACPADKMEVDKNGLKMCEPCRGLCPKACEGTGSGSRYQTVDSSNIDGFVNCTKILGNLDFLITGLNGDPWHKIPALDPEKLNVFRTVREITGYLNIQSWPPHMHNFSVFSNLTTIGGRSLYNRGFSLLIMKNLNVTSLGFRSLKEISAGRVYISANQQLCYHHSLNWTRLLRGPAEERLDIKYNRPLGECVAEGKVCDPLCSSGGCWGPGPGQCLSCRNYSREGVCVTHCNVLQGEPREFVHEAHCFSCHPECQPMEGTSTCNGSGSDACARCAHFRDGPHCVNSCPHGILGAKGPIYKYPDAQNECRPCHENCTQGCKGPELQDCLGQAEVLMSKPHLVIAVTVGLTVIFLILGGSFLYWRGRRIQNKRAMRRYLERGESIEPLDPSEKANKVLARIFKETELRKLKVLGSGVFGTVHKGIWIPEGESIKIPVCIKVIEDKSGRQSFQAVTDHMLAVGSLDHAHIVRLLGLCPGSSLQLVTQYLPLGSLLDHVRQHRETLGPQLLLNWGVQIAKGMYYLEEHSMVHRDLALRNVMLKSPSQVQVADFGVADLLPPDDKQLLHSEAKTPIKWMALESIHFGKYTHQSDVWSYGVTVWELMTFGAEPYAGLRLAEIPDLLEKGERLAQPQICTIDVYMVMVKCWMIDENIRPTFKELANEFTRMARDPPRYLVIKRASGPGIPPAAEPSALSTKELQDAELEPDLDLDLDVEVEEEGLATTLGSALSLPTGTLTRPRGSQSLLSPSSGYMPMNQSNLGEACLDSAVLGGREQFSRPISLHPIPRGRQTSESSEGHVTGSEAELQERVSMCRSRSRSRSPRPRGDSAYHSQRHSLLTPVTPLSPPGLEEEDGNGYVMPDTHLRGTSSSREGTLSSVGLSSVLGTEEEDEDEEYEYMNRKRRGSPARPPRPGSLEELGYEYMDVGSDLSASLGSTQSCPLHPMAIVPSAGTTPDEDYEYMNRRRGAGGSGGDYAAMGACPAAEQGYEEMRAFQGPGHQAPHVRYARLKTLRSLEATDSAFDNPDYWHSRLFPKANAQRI
T3 sequence (Q62799 20-1339): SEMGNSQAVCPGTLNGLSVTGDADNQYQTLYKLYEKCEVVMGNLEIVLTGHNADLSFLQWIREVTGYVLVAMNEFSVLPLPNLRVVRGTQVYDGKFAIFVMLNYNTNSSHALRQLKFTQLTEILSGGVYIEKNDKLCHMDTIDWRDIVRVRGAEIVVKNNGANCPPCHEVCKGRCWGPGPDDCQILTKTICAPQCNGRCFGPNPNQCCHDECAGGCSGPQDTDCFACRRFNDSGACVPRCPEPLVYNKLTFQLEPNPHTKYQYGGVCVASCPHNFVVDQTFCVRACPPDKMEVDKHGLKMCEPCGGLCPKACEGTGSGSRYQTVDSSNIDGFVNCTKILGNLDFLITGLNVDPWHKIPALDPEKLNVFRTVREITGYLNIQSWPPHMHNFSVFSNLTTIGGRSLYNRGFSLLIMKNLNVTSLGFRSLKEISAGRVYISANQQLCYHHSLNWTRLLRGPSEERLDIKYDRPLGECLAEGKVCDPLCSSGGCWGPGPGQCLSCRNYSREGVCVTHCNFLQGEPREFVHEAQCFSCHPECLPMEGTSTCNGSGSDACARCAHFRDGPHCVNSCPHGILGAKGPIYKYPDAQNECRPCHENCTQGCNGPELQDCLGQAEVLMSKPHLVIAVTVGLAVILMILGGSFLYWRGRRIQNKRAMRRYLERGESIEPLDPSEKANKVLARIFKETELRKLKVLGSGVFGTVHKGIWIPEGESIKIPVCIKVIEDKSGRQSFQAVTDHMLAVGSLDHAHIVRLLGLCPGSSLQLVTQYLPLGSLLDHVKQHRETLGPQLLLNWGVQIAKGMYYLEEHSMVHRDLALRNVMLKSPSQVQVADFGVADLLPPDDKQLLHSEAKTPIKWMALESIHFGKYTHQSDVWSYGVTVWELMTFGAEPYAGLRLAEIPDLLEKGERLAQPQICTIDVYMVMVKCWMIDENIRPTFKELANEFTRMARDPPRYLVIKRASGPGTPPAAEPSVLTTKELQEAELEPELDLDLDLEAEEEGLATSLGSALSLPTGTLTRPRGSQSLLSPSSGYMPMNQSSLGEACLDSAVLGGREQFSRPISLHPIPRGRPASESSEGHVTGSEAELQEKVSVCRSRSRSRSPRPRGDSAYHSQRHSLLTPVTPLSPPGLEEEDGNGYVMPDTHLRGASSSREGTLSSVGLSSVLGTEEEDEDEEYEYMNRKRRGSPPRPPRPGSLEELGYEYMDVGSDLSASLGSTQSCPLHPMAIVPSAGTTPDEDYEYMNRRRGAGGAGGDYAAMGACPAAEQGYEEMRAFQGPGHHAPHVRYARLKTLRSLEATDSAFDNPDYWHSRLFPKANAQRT

B1: 10D1_c89: clone 10D1F comprises VH of SEQ ID NO:36 and VL of SEQ ID NO:83 (antibody, V domains shown)
VH: QVQLQESGPGLVKPSQTLSLTCTVSGYSITSGYSWHWIRQHPGKGLEWIGSIRYSGGTDYNPSLKSLVTISADTSKNQFSLKLSSVTAADTAVYYCARMTTAPWYPFDYWGQGTTVTVSS
VL: DIQMTQSPSSVSASVGDRVTITCKASQIVGSNVAWYQQKPGKAPEPLIYSASYLYSGVPSRFSGSGSGTDFTLTISSLQPEDFATYYCQQYSSHPLTFGQGTKLEIK
[1]
  Kd: 0.0726 nM
[2]
  affinity of binding to human HER3: sub-picomolar affinity
[3]
  affinity of binding to human HER3: sub-picomolar affinity
[4]
  immunohistochemical staining of malignant and normal human tissue: preferentially stained malignant human tissue sections, with low cross-reactivity to normal tissue

B2: 4-35-B2: anti-HER3 antibody clone, VH SEQ ID NO:127, VL SEQ ID NO:135 (antibody, V domains shown)
VH: EIQLQQSGPELVKPGASVKVSCKASGYSFTDYNMYWVKQSHGKSLEWIGHINPYNGGTTYNQKFKGRATLTVDKSSSTAFMHLNSLTSEDSAVYFCVSLRWGAMDYWGQGTSVTVSS
VL: QIVLTQSPALMSASPGEKVTMTCSASSSVSYMYWYQQKPRSSPKPWIYLTSNLASGVPARFSGSGSGTSYSLTISSMEAEDAATYYCQQWNSNPYTFGGGTKLEIK
[5]
  binding / cross-reactivity with mouse HER3: substantial cross-reactivity
[6]
  binding / cross-reactivity with rat HER3: substantial cross-reactivity
[7]
  binding / cross-reactivity with cynomolgus macaque HER3: substantial cross-reactivity
[8]
  binding to human EGFR (HER1): found to bind
[9]
  binding to human HER2: found to bind
[10]
  inhibition of tumor growth: ~63%

B3: MM-121: anti-HER3 antibody blocking binding of heregulin (NRG) to HER3 (antibody, chains of the INN, looked up)
heavy: EVQLLESGGGLVQPGGSLRLSCAASGFTFSHYVMAWVRQAPGKGLEWVSSISSSGGWTLYADSVKGRFTISRDNSKNTLYLQMNSLRAEDTAVYYCTRGLKMATIFDYWGQGTLVTVSSASTKGPSVFPLAPCSRSTSESTAALGCLVKDYFPEPVTVSWNSGALTSGVHTFPAVLQSSGLYSLSSVVTVPSSNFGTQTYTCNVDHKPSNTKVDKTVERKCCVECPPCPAPPVAGPSVFLFPPKPKDTLMISRTPEVTCVVVDVSHEDPEVQFNWYVDGVEVHNAKTKPREEQFNSTFRVVSVLTVVHQDWLNGKEYKCKVSNKGLPAPIEKTISKTKGQPREPQVYTLPPSREEMTKNQVSLTCLVKGFYPSDIAVEWESNGQPENNYKTTPPMLDSDGSFFLYSKLTVDKSRWQQGNVFSCSVMHEALHNHYTQKSLSLSPG
light: QSALTQPASVSGSPGQSITISCTGTSSDVGSYNVVSWYQQHPGKAPKLIIYEVSQRPSGVSNRFSGSKSGNTASLTISGLQTEDEADYYCCSYAGSSIFVIFGGGTKVTVLGQPKAAPSVTLFPPSSEELQANKATLVCLVSDFYPGAVTVAWKADGSPVKVGVETTKPSKQSNNKYAASSYLSLTPEQWKSHRSYSCRVTHEGSTVEKTVAPAECS
[11]
  T½ (terminal half life): 10.5 days
[11]; normalised to per mg/kg dosed
  Cmax (μg/ml) normalised to per mg/kg dosed: 24 to 25 µg/mL
